Laboratory results as given in patent US20200262867A1 (WNTRX PHARMACEUTICALS, published 2020).
Blank lines part the entries; values can stand above or below the binder they belong to. Bridges are numbered along the chain shown (N, C = ends). [ ]: non-standard residue; d: D form. Phe(4-Cl) = N[C@@H](Cc1ccc(Cl)cc1)C(=O)O; 2Nal = N[C@@H](Cc1ccc2ccccc2c1)C(=O)O; NMeCha = CN[C@@H](CC1CCCCC1)C(=O)O; NMeR = CN[C@@H](CCCNC(=N)N)C(=O)O; NMeE = CN[C@@H](CCC(=O)O)C(=O)O; NMeQ = CN[C@@H](CCC(N)=O)C(=O)O; Cha = N[C@@H](CC1CCCCC1)C(=O)O; NMeD = CN[C@@H](CC(=O)O)C(=O)O; Cba = N[C@@H](CC1CCC1)C(=O)O; Tle = CC(C)(C)[C@H](N)C(=O)O; S5 = C=CCCC[C@](C)(N)C(=O)O

Biological target: T1, β-catenin (UniProt P35222 1-781, limits assumed)
T1 construct: also called beta-catenin
T1 sequence (looked up): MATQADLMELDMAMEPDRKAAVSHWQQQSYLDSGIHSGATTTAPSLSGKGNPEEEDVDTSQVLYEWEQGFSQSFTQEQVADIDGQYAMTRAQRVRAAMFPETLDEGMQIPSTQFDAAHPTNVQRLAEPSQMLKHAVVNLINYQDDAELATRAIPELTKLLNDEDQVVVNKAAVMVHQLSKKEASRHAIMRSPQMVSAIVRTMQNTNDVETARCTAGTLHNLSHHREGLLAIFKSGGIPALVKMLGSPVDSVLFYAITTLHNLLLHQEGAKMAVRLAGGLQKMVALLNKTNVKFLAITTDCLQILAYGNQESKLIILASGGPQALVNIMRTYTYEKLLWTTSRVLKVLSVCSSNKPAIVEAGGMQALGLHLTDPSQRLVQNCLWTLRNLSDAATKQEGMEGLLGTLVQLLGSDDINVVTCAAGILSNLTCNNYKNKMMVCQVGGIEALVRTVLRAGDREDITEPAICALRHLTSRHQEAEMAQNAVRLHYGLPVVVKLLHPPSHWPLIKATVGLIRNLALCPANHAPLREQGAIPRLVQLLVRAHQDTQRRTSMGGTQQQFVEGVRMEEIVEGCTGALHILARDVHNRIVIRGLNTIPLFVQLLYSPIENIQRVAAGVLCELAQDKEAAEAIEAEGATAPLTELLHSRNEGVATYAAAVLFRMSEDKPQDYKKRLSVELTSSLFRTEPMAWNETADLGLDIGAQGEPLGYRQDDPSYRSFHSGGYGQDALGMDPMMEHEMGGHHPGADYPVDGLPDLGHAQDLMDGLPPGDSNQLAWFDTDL
Assay: ALPHA Screen (BCL9/β-catenin);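 note: bead proximity readout with the polypeptide linked to donor beads and β-catenin fixed on acceptor beads, their binding bringing the beads close enough to emit signal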
Source text: In this assay, a polypeptide is conjugated to a donor bead and its target protein (i.e., β-catenin) is attached to an acceptor bead. When the two beads are in proximity due to the binding of the polypeptide to the target protein, a signal is generated and the binding affinity of the polypeptide can be quantitatively calculated. The assay may be conducted in the presence or absence of an unconjugated control polypeptide.

Binder: Ac-H[NMeR]QRSLQTLR[S5]IQR[S5][Cba][2Nal]-NH2 (staple 11-15) [SEQ ID NO: 166]
IC50: 403 nM

B1: SEQ ID NO: 145 (peptide)
peptide: Ac-HRERSLQTLR[S5]IQQ[S5][Cba][2Nal]-NH2
modifications: staple 11-15
SMILES: CC[C@H](C)[C@@H]1NC(=O)[C@@](C)(NC(=O)[C@H](CCCNC(=N)N)NC(=O)[C@H](CC(C)C)NC(=O)[C@@H](NC(=O)[C@H](CCC(N)=O)NC(=O)[C@H](CC(C)C)NC(=O)[C@H](CO)NC(=O)[C@H](CCCNC(=N)N)NC(=O)[C@H](CCC(=O)O)NC(=O)[C@H](CCCNC(=N)N)NC(=O)[C@H](Cc2c[nH]cn2)NC(C)=O)[C@@H](C)O)CCCC=CCCC[C@@](C)(C(=O)N[C@@H](CC2CCC2)C(=O)N[C@@H](Cc2ccc3ccccc3c2)C(N)=O)NC(=O)[C@H](CCC(N)=O)NC(=O)[C@H](CCC(N)=O)NC1=O
IC50: 154 nM

Binder: Ac-HRERSLQTLR[S5]IQR[S5]L[2Nal]-NH2 (staple 11-15; not fully specified; printed as HRERSLQTLRXIQRXL(2-Nal)) [SEQ ID NO: 6]
IC50: 670 nM

Binder: Ac-HQERSLQTLR[S5]IQR[S5]L[2Nal]-NH2 (staple 11-15; not fully specified; printed as HQERSLQTLRXIQRXL(2-Nal)) [SEQ ID NO: 11]
IC50: 2110 nM

B2: SEQ ID NO: 14 (peptide)
peptide: Ac-HRERSLQTLR[S5]IQR[S5][Cba][2Nal]-NH2
modifications: staple 11-15
SMILES: CC[C@H](C)[C@@H]1NC(=O)[C@@](C)(NC(=O)[C@H](CCCNC(=N)N)NC(=O)[C@H](CC(C)C)NC(=O)[C@@H](NC(=O)[C@H](CCC(N)=O)NC(=O)[C@H](CC(C)C)NC(=O)[C@H](CO)NC(=O)[C@H](CCCNC(=N)N)NC(=O)[C@H](CCC(=O)O)NC(=O)[C@H](CCCNC(=N)N)NC(=O)[C@H](Cc2c[nH]cn2)NC(C)=O)[C@@H](C)O)CCCC=CCCC[C@@](C)(C(=O)N[C@@H](CC2CCC2)C(=O)N[C@@H](Cc2ccc3ccccc3c2)C(N)=O)NC(=O)[C@H](CCCNC(=N)N)NC(=O)[C@H](CCC(N)=O)NC1=O
IC50: 457 nM

Binder: Ac-HRERSLQTLR[S5]IQA[S5][Cba][2Nal]-NH2 (staple 11-15; not fully specified; printed as HRERSLQTLRXIQAX(CBA)(2-Nal)) [SEQ ID NO: 29]
IC50: 1350 nM

B6: SEQ ID NO: 146 (peptide)
peptide: Ac-HRERSLQTLR[S5]IQE[S5][Cba][2Nal]-OH
modifications: staple 11-15
SMILES: CC[C@H](C)[C@@H]1NC(=O)[C@@](C)(NC(=O)[C@H](CCCNC(=N)N)NC(=O)[C@H](CC(C)C)NC(=O)[C@@H](NC(=O)[C@H](CCC(N)=O)NC(=O)[C@H](CC(C)C)NC(=O)[C@H](CO)NC(=O)[C@H](CCCNC(=N)N)NC(=O)[C@H](CCC(=O)O)NC(=O)[C@H](CCCNC(=N)N)NC(=O)[C@H](Cc2c[nH]cn2)NC(C)=O)[C@@H](C)O)CCCC=CCCC[C@@](C)(C(=O)N[C@@H](CC2CCC2)C(=O)N[C@@H](Cc2ccc3ccccc3c2)C(=O)O)NC(=O)[C@H](CCC(=O)O)NC(=O)[C@H](CCC(N)=O)NC1=O
IC50: 493 nM

Binder: Ac-HRERSLQTLR[S5]IQA[S5]L[2Nal]-NH2 (staple 11-15; not fully specified; printed as HRERSLQTLRXIQAXL(2-Nal)) [SEQ ID NO: 28]
IC50: 2000 nM

Continued, values first:

IC50: 223 nM
Binder: Ac-HRQRS[Cha][NMeQ]TLR[S5]IQR[S5][Cha][2Nal]-NH2 (staple 11-15; also: N-MeGln at 7: D or L (both stated)) [SEQ ID NO: 185]

IC50: 398 nM
Binder: Ac-HR[NMeQ]RSLQTLR[S5]IQR[S5][Tle][2Nal]-NH2 (staple 11-15; also: N-methylglutamine 3: D or L (filing names both)) [SEQ ID NO: 194]

IC50: 232 nM
Binder: Ac-HRQRS[NMeCha][NMeQ]TLR[S5]IQR[S5][Cha][2Nal]-NH2 (staple 11-15; also: N-MeGln at 7: D or L (both stated)) [SEQ ID NO: 186]

IC50: 794 nM
Binder: Ac-HRERSLQTL[NMeR][S5]IQR[S5][Cba][2Nal]-OH (staple 11-15; not fully specified) [SEQ ID NO: 152]

IC50: 291 nM
Binder: Ac-HRQRTLQTLR[S5]IQR[S5][Cba][2Nal]-NH2 (staple 11-15) [SEQ ID NO: 159]

IC50: 59 nM
B3: SEQ ID NO: 179 (peptide)
peptide: Ac-HRQRSLQTLR[S5]IQR[S5][Phe(4-Cl)][2Nal]-NH2
modifications: staple 11-15
SMILES: CC[C@H](C)[C@@H]1NC(=O)[C@@](C)(NC(=O)[C@H](CCCNC(=N)N)NC(=O)[C@H](CC(C)C)NC(=O)[C@@H](NC(=O)[C@H](CCC(N)=O)NC(=O)[C@H](CC(C)C)NC(=O)[C@H](CO)NC(=O)[C@H](CCCNC(=N)N)NC(=O)[C@H](CCC(N)=O)NC(=O)[C@H](CCCNC(=N)N)NC(=O)[C@H](Cc2c[nH]cn2)NC(C)=O)[C@@H](C)O)CCCC=CCCC[C@@](C)(C(=O)N[C@@H](Cc2ccc(Cl)cc2)C(=O)N[C@@H](Cc2ccc3ccccc3c2)C(N)=O)NC(=O)[C@H](CCCNC(=N)N)NC(=O)[C@H](CCC(N)=O)NC1=O

IC50: 261 nM
B4: SEQ ID NO: 151 (peptide)
peptide: Ac-HR[NMeE]RSLQTLR[S5]IQR[S5][Cba][2Nal]-NH2
modifications: staple 11-15
SMILES: CC[C@H](C)[C@@H]1NC(=O)[C@@](C)(NC(=O)[C@H](CCCNC(=N)N)NC(=O)[C@H](CC(C)C)NC(=O)[C@@H](NC(=O)[C@H](CCC(N)=O)NC(=O)[C@H](CC(C)C)NC(=O)[C@H](CO)NC(=O)[C@H](CCCNC(=N)N)NC(=O)[C@H](CCC(=O)O)N(C)C(=O)[C@H](CCCNC(=N)N)NC(=O)[C@H](Cc2c[nH]cn2)NC(C)=O)[C@@H](C)O)CCCC=CCCC[C@@](C)(C(=O)N[C@@H](CC2CCC2)C(=O)N[C@@H](Cc2ccc3ccccc3c2)C(N)=O)NC(=O)[C@H](CCCNC(=N)N)NC(=O)[C@H](CCC(N)=O)NC1=O

IC50: 253 nM
B5: SEQ ID NO: 156 (peptide)
peptide: Ac-HRQRS[Cba]QTLR[S5]IQR[S5][Cba][2Nal]-NH2
modifications: staple 11-15
SMILES: CC[C@H](C)[C@@H]1NC(=O)[C@@](C)(NC(=O)[C@H](CCCNC(=N)N)NC(=O)[C@H](CC(C)C)NC(=O)[C@@H](NC(=O)[C@H](CCC(N)=O)NC(=O)[C@H](CC2CCC2)NC(=O)[C@H](CO)NC(=O)[C@H](CCCNC(=N)N)NC(=O)[C@H](CCC(N)=O)NC(=O)[C@H](CCCNC(=N)N)NC(=O)[C@H](Cc2c[nH]cn2)NC(C)=O)[C@@H](C)O)CCCC=CCCC[C@@](C)(C(=O)N[C@@H](CC2CCC2)C(=O)N[C@@H](Cc2ccc3ccccc3c2)C(N)=O)NC(=O)[C@H](CCCNC(=N)N)NC(=O)[C@H](CCC(N)=O)NC1=O

IC50: 329 nM
B7: SEQ ID NO: 192 (peptide)
peptide: Ac-HRQRSLQTLR[S5]IQR[S5][Tle][2Nal]-NH2
modifications: staple 11-15
SMILES: CC[C@H](C)[C@@H]1NC(=O)[C@@](C)(NC(=O)[C@H](CCCNC(=N)N)NC(=O)[C@H](CC(C)C)NC(=O)[C@@H](NC(=O)[C@H](CCC(N)=O)NC(=O)[C@H](CC(C)C)NC(=O)[C@H](CO)NC(=O)[C@H](CCCNC(=N)N)NC(=O)[C@H](CCC(N)=O)NC(=O)[C@H](CCCNC(=N)N)NC(=O)[C@H](Cc2c[nH]cn2)NC(C)=O)[C@@H](C)O)CCCC=CCCC[C@@](C)(C(=O)N[C@H](C(=O)N[C@@H](Cc2ccc3ccccc3c2)C(N)=O)C(C)(C)C)NC(=O)[C@H](CCCNC(=N)N)NC(=O)[C@H](CCC(N)=O)NC1=O

IC50: 525 nM
B8: SEQ ID NO: 157 (peptide)
peptide: Ac-HR[NMeD]RSLQTLR[S5]IQR[S5][Cba][2Nal]-NH2
modifications: staple 11-15
SMILES: CC[C@H](C)[C@@H]1NC(=O)[C@@](C)(NC(=O)[C@H](CCCNC(=N)N)NC(=O)[C@H](CC(C)C)NC(=O)[C@@H](NC(=O)[C@H](CCC(N)=O)NC(=O)[C@H](CC(C)C)NC(=O)[C@H](CO)NC(=O)[C@H](CCCNC(=N)N)NC(=O)[C@H](CC(=O)O)N(C)C(=O)[C@H](CCCNC(=N)N)NC(=O)[C@H](Cc2c[nH]cn2)NC(C)=O)[C@@H](C)O)CCCC=CCCC[C@@](C)(C(=O)N[C@@H](CC2CCC2)C(=O)N[C@@H](Cc2ccc3ccccc3c2)C(N)=O)NC(=O)[C@H](CCCNC(=N)N)NC(=O)[C@H](CCC(N)=O)NC1=O
